In patent publication US20180312557A1, “Leg1 Protein, Leg1 Gene, and Uses and Drugs thereof” (ZHEJIANG UNIVERSITY, priority 2016, published 2018):

What was measured:
[1] = test system: intracellular tyrosine phosphorylation in HepG2 cells; assay: Total intracellular tyrosine phosphorylation in HepG2 cells (antibody 4G10); type: cell-based, human; conditions: HepG2, partially purified mLeg1 vs no addition
Protocol: 18.1 Partially purified mLeg1 was added to the HepG2 cell medium to culture the HepG2 cells, and then total protein was extracted.
18.2 The phosphorylation level of the total intracellular tyrosine was detected through the tyrosine phosphorylation antibody 4G10 (Millipore, 05-321).

[2] = test system: RTKs; assay: Phospho-RTK array, HepG2 cells: other RTKs; type: cell-based, human; conditions: HepG2, Phospho-RTK array (49 RTKs)
Protocol: (§1) 19.1 The screening of receptor tyrosine kinase was performed by a RTK assay kit (Proteome Profiler Human Phospho-RTK Array Kit, R&D Cat. no. ARY001B) according to the manufacturer's instruction. The kit can detect 49 of 58 RTKs in total. The operation steps are summarized as follows: mLeg1 and a control were used to treat the cells (cells were grown in a 10 cm petri dish) separately, and then 500 μl of lysis buffer17 was used to lyse the cells; the RTK screening membrane was blocked for 1 hour using Assay buffer1 and then coated with a cell lysate for binding overnight, the resultant product was washed three times with 1× Wash Buffer, 10 minutes each time, then added with Anti-Phospho-Tyrosine-HRP Detection Antibody diluted with 1× Array Buffer2 at the ratio of 1:5000 for incubation at room temperature for 2 hours; followed by washing 3 times with 1× Wash Buffer, 10 minutes each time, then applied with Chemi Reagent Mix and developed, and finally imaged in a fluorescent chemiluminescent imager (Clinx Science Instruments Cat. No. 3400) with the signals recorded.

[3] = test system: Akt phosphorylation of the HepG2 cells; assay: Akt phosphorylation of HepG2 cells incubated with mLeg1 protein partially purified from salivary glands (Western blot); type: cell-based, human
Protocol: 16.1.1 The salivary glands of two to three wild-type mice were harvested and rinsed in the pre-cooled PBS buffer, minced into fine pieces with scissors, and then transferred to a tissue homogenizer, added with 4 ml of lysate buffer (50 mM Tris-Hcl, pH 8.0, 150 mM NaCl, 0.5% NP40, 2× complete), fully homogenized on ice by pipetting through a 23G needle repeatedly, incubated for 30 minutes at 4° C. in a vertical shaker, and then centrifuged at 12000 g at 4° C. for 15 minutes to collect the supernatant.
16.1.2 The supernatant was passed through a sepharose 6B gel filtration column at a constant speed at 4° C., wherein the PBS buffer was used for elution, and different eluted components were separately collected by 4 ml per tube.
16.1.3 The content of mLeg1 in each tube was detected by Western blot. The tube with the highest mLeg1 content was taken as partially purified mLeg1, and the concentration of mLeg1 protein was estimated using the recombinantly-expressed mLeg1 protein in Escherichia coli as a reference, for subsequent experiments.
16.1.4 The partially purified mLeg1 protein was diluted to different concentrations (3.14×10^−2 ng/0.314 ng/μl and 3.14 ng/μl), and the different concentrations of mLeg1 protein were added to HepG2 culture medium respectively to culture HepG2, followed by incubation at 37° C. for 20 minutes, then total protein was extracted (as to the method of extraction, reference can be made to step 13.2), and Akt phosphorylation level at the different concentrations was detected by Western blot (referring to step 14.3, anti-p-Akt antibody (S473, Cell signaling #4060P) was selected as the corresponding antibody, and the dilution ratio was 1:1000).
16.2.1 mLeg1 protein-enriched components from wild-type mice and from mLeg1^Δ/Δ mice were extracted respectively. […]
16.2.3 The Akt phosphorylation level at different concentrations was detected by Western blot (reference can be made to step 13.2 for details, anti-p-Akt antibody (S473, Cell signaling #4060P) was selected as the corresponding antibody, and the dilution ratio in use was 1:1000).

[4] = molecular target: T1, EGFR (Homo sapiens, UniProt P00533); assay: Phospho-RTK array and EGFR phosphorylation specific antibody, HepG2 cells: EGFR; type: cell-based
T1 construct: endogenous in cells; host or cells: HepG2
Protocol: as §1
Further, the inventors of the present disclosure detected the impact of mLeg1 on intracellular EGFR activation level by an EGFR phosphorylation specific antibody.

intracellular EGFR activation level ([4]; EGFR phosphorylation specific antibody): could activate the EGFR very rapidly
tyrosine phosphorylation in EGFR ([4]; HepG2, Phospho-RTK array): increases significantly
time within which EGFR is activated ([4]; in vitro experiments): ≤ 1 min
time within which the phosphorylation level of EGFR began to decrease ([4]; in vitro experiments): ≤ 3 min
B1: mLeg1 protein: mouse secretory protein (SEQ ID NO: 2) encoded by mLeg1 gene, partially purified from salivary glands by column chromatography (protein, listed as Mus musculus)
chain: MAVLASWVWVLAGCFCAAVAEVSDSSDPYPPLWEDSPEQLSDYMMEDGNYIINPWVYTDRMGMYRILLEETAMYFAKYGPENEQNLLWGLPLQFGWQYQSGRLADPTGMTDCGNELNESLCVSVDSWWADINYYLSVIPFLAAVDSGITGISPNQITILPPPKDQMRFCYNVSDCQSAVPGTMNRWRDFFQYMQLNSSDFDGLLNYLWEAHASSLDYPTSAFGDRYNFYSEKEANFEENWAIAVNYLAAARLPTTQNRTYSFQRGLPPRVLVDTDIAPFIPDFTPLQNEVLVSLKLLGDTDRNSGSLSLTLWENLMSTKLARTLFLKAFEEFLATSS
modifications: partially purified
phosphorylation level of the intracellular tyrosine [1]: far higher than that of the control group
activity of most of the RTKs [2]: not influenced
induction of Akt phosphorylation ([3]; HepG2, 37° C. 20 minutes, 3.14×10^−2, 0.314 and 3.14 ng/μl): could induce Akt phosphorylation
level of partially purified mLeg1 able to induce Akt phosphorylation of the HepG2 cells ([3]; HepG2, 20 minutes): nanogram levels
ability to induce Akt phosphorylation ([3]; HepG2, 20 minutes, compared with corresponding components of mLeg1Δ/Δ salivary glands): significantly higher
